Data as given in US12679878B2, “CRF2 receptor agonists and their use in therapy” (SANOFI, priority 2020, dated 2026).
Starred links: 1 amine or outer side, 2 acyl side, 3 side chain; linkers in the order of their positions; H or OH if unused. Non-standard residues stand in square brackets, D forms with d. Groups on a side chain read outwards from the residue. No end group written: not given here. *: point of attachment. C20 diacid = O=C(O)CCCCCCCCCCCCCCCCCCC(=O)*; C18 diacid = O=C(O)CCCCCCCCCCCCCCCCC(=O)*; γGlu = O=C(O)[C@H](CCC(=O)[*:2])N[*:1]; Palmitoyl = CCCCCCCCCCCCCCCC(=O)*; AEEA = NCCOCCOCC(=O)O; Aib = CC(C)(N)C(=O)O

B1: SEQ ID NO: 81 (peptide)
peptide: IVLSLDVPIKLK([AEEA-AEEA-γGlu-C20 diacid])QILLEQEKQK[Aib]QREQAETNKQILAQV-NH2
modifications: N-terminus assumed
SMILES: CC[C@H](C)[C@H](N)C(=O)N[C@H](C(=O)N[C@@H](CC(C)C)C(=O)N[C@@H](CO)C(=O)N[C@@H](CC(C)C)C(=O)N[C@@H](CC(=O)O)C(=O)N[C@H](C(=O)N1CCC[C@H]1C(=O)N[C@H](C(=O)N[C@@H](CCCCN)C(=O)N[C@@H](CC(C)C)C(=O)N[C@@H](CCCCNC(=O)COCCOCCNC(=O)COCCOCCNC(=O)CC[C@H](NC(=O)CCCCCCCCCCCCCCCCCCC(=O)O)C(=O)O)C(=O)N[C@@H](CCC(N)=O)C(=O)N[C@H](C(=O)N[C@@H](CC(C)C)C(=O)N[C@@H](CC(C)C)C(=O)N[C@@H](CCC(=O)O)C(=O)N[C@@H](CCC(N)=O)C(=O)N[C@@H](CCC(=O)O)C(=O)N[C@@H](CCCCN)C(=O)N[C@@H](CCC(N)=O)C(=O)N[C@@H](CCCCN)C(=O)NC(C)(C)C(=O)N[C@@H](CCC(N)=O)C(=O)N[C@@H](CCCNC(=N)N)C(=O)N[C@@H](CCC(=O)O)C(=O)N[C@@H](CCC(N)=O)C(=O)N[C@@H](C)C(=O)N[C@@H](CCC(=O)O)C(=O)N[C@H](C(=O)N[C@@H](CC(N)=O)C(=O)N[C@@H](CCCCN)C(=O)N[C@@H](CCC(N)=O)C(=O)N[C@H](C(=O)N[C@@H](CC(C)C)C(=O)N[C@@H](C)C(=O)N[C@@H](CCC(N)=O)C(=O)N[C@H](C(N)=O)C(C)C)[C@@H](C)CC)[C@@H](C)O)[C@@H](C)CC)[C@@H](C)CC)C(C)C)C(C)C
B2: SEQ ID NO: 79 (peptide)
peptide: IVLSLDVPIKLK([AEEA-AEEA-γGlu-C18 diacid])QILLEQEKQK[Aib]QREQAETNKQILAQV-NH2
modifications: N-terminus assumed
SMILES: CC[C@H](C)[C@H](N)C(=O)N[C@H](C(=O)N[C@@H](CC(C)C)C(=O)N[C@@H](CO)C(=O)N[C@@H](CC(C)C)C(=O)N[C@@H](CC(=O)O)C(=O)N[C@H](C(=O)N1CCC[C@H]1C(=O)N[C@H](C(=O)N[C@@H](CCCCN)C(=O)N[C@@H](CC(C)C)C(=O)N[C@@H](CCCCNC(=O)COCCOCCNC(=O)COCCOCCNC(=O)CC[C@H](NC(=O)CCCCCCCCCCCCCCCCC(=O)O)C(=O)O)C(=O)N[C@@H](CCC(N)=O)C(=O)N[C@H](C(=O)N[C@@H](CC(C)C)C(=O)N[C@@H](CC(C)C)C(=O)N[C@@H](CCC(=O)O)C(=O)N[C@@H](CCC(N)=O)C(=O)N[C@@H](CCC(=O)O)C(=O)N[C@@H](CCCCN)C(=O)N[C@@H](CCC(N)=O)C(=O)N[C@@H](CCCCN)C(=O)NC(C)(C)C(=O)N[C@@H](CCC(N)=O)C(=O)N[C@@H](CCCNC(=N)N)C(=O)N[C@@H](CCC(=O)O)C(=O)N[C@@H](CCC(N)=O)C(=O)N[C@@H](C)C(=O)N[C@@H](CCC(=O)O)C(=O)N[C@H](C(=O)N[C@@H](CC(N)=O)C(=O)N[C@@H](CCCCN)C(=O)N[C@@H](CCC(N)=O)C(=O)N[C@H](C(=O)N[C@@H](CC(C)C)C(=O)N[C@@H](C)C(=O)N[C@@H](CCC(N)=O)C(=O)N[C@H](C(N)=O)C(C)C)[C@@H](C)CC)[C@@H](C)O)[C@@H](C)CC)[C@@H](C)CC)C(C)C)C(C)C
B3: SEQ ID NO: 77 (peptide)
peptide: IVLSLDVPIKLK([AEEA-AEEA-γGlu-C18 diacid])QILLKQERQKKQRQKAETNKQILAQV-NH2
modifications: N-terminus assumed
SMILES: CC[C@H](C)[C@H](N)C(=O)N[C@H](C(=O)N[C@@H](CC(C)C)C(=O)N[C@@H](CO)C(=O)N[C@@H](CC(C)C)C(=O)N[C@@H](CC(=O)O)C(=O)N[C@H](C(=O)N1CCC[C@H]1C(=O)N[C@H](C(=O)N[C@@H](CCCCN)C(=O)N[C@@H](CC(C)C)C(=O)N[C@@H](CCCCNC(=O)COCCOCCNC(=O)COCCOCCNC(=O)CC[C@H](NC(=O)CCCCCCCCCCCCCCCCC(=O)O)C(=O)O)C(=O)N[C@@H](CCC(N)=O)C(=O)N[C@H](C(=O)N[C@@H](CC(C)C)C(=O)N[C@@H](CC(C)C)C(=O)N[C@@H](CCCCN)C(=O)N[C@@H](CCC(N)=O)C(=O)N[C@@H](CCC(=O)O)C(=O)N[C@@H](CCCNC(=N)N)C(=O)N[C@@H](CCC(N)=O)C(=O)N[C@@H](CCCCN)C(=O)N[C@@H](CCCCN)C(=O)N[C@@H](CCC(N)=O)C(=O)N[C@@H](CCCNC(=N)N)C(=O)N[C@@H](CCC(N)=O)C(=O)N[C@@H](CCCCN)C(=O)N[C@@H](C)C(=O)N[C@@H](CCC(=O)O)C(=O)N[C@H](C(=O)N[C@@H](CC(N)=O)C(=O)N[C@@H](CCCCN)C(=O)N[C@@H](CCC(N)=O)C(=O)N[C@H](C(=O)N[C@@H](CC(C)C)C(=O)N[C@@H](C)C(=O)N[C@@H](CCC(N)=O)C(=O)N[C@H](C(N)=O)C(C)C)[C@@H](C)CC)[C@@H](C)O)[C@@H](C)CC)[C@@H](C)CC)C(C)C)C(C)C
B4: SEQ ID NO: 5 (peptide)
peptide: IVLSLDVPIGLK([γGlu-Palmitoyl])QKLLKQQRQRKERQQAETNARILARV-NH2
modifications: N-terminus assumed
SMILES: CCCCCCCCCCCCCCCC(=O)N[C@@H](CCC(=O)NCCCC[C@H](NC(=O)[C@H](CC(C)C)NC(=O)CNC(=O)[C@@H](NC(=O)[C@@H]1CCCN1C(=O)[C@@H](NC(=O)[C@H](CC(=O)O)NC(=O)[C@H](CC(C)C)NC(=O)[C@H](CO)NC(=O)[C@H](CC(C)C)NC(=O)[C@@H](NC(=O)[C@@H](N)[C@@H](C)CC)C(C)C)C(C)C)[C@@H](C)CC)C(=O)N[C@@H](CCC(N)=O)C(=O)N[C@@H](CCCCN)C(=O)N[C@@H](CC(C)C)C(=O)N[C@@H](CC(C)C)C(=O)N[C@@H](CCCCN)C(=O)N[C@@H](CCC(N)=O)C(=O)N[C@@H](CCC(N)=O)C(=O)N[C@@H](CCCNC(=N)N)C(=O)N[C@@H](CCC(N)=O)C(=O)N[C@@H](CCCNC(=N)N)C(=O)N[C@@H](CCCCN)C(=O)N[C@@H](CCC(=O)O)C(=O)N[C@@H](CCCNC(=N)N)C(=O)N[C@@H](CCC(N)=O)C(=O)N[C@@H](CCC(N)=O)C(=O)N[C@@H](C)C(=O)N[C@@H](CCC(=O)O)C(=O)N[C@H](C(=O)N[C@@H](CC(N)=O)C(=O)N[C@@H](C)C(=O)N[C@@H](CCCNC(=N)N)C(=O)N[C@H](C(=O)N[C@@H](CC(C)C)C(=O)N[C@@H](C)C(=O)N[C@@H](CCCNC(=N)N)C(=O)N[C@H](C(N)=O)C(C)C)[C@@H](C)CC)[C@@H](C)O)C(=O)O
B5: SEQ ID NO: 80 (peptide)
peptide: IVLSLDVPTKLK([AEEA-AEEA-γGlu-C20 diacid])QILLEQERQKKQREQAETN[Aib]QILAQV-NH2
modifications: N-terminus assumed
SMILES: CC[C@H](C)[C@H](N)C(=O)N[C@H](C(=O)N[C@@H](CC(C)C)C(=O)N[C@@H](CO)C(=O)N[C@@H](CC(C)C)C(=O)N[C@@H](CC(=O)O)C(=O)N[C@H](C(=O)N1CCC[C@H]1C(=O)N[C@H](C(=O)N[C@@H](CCCCN)C(=O)N[C@@H](CC(C)C)C(=O)N[C@@H](CCCCNC(=O)COCCOCCNC(=O)COCCOCCNC(=O)CC[C@H](NC(=O)CCCCCCCCCCCCCCCCCCC(=O)O)C(=O)O)C(=O)N[C@@H](CCC(N)=O)C(=O)N[C@H](C(=O)N[C@@H](CC(C)C)C(=O)N[C@@H](CC(C)C)C(=O)N[C@@H](CCC(=O)O)C(=O)N[C@@H](CCC(N)=O)C(=O)N[C@@H](CCC(=O)O)C(=O)N[C@@H](CCCNC(=N)N)C(=O)N[C@@H](CCC(N)=O)C(=O)N[C@@H](CCCCN)C(=O)N[C@@H](CCCCN)C(=O)N[C@@H](CCC(N)=O)C(=O)N[C@@H](CCCNC(=N)N)C(=O)N[C@@H](CCC(=O)O)C(=O)N[C@@H](CCC(N)=O)C(=O)N[C@@H](C)C(=O)N[C@@H](CCC(=O)O)C(=O)N[C@H](C(=O)N[C@@H](CC(N)=O)C(=O)NC(C)(C)C(=O)N[C@@H](CCC(N)=O)C(=O)N[C@H](C(=O)N[C@@H](CC(C)C)C(=O)N[C@@H](C)C(=O)N[C@@H](CCC(N)=O)C(=O)N[C@H](C(N)=O)C(C)C)[C@@H](C)CC)[C@@H](C)O)[C@@H](C)CC)[C@@H](C)O)C(C)C)C(C)C
B6: SEQ ID NO: 78 (peptide)
peptide: IVLSLDVPTKLK([AEEA-AEEA-γGlu-C18 diacid])QILLEQERQKKQREQAETN[Aib]QILAQV-NH2
modifications: N-terminus assumed
SMILES: CC[C@H](C)[C@H](N)C(=O)N[C@H](C(=O)N[C@@H](CC(C)C)C(=O)N[C@@H](CO)C(=O)N[C@@H](CC(C)C)C(=O)N[C@@H](CC(=O)O)C(=O)N[C@H](C(=O)N1CCC[C@H]1C(=O)N[C@H](C(=O)N[C@@H](CCCCN)C(=O)N[C@@H](CC(C)C)C(=O)N[C@@H](CCCCNC(=O)COCCOCCNC(=O)COCCOCCNC(=O)CC[C@H](NC(=O)CCCCCCCCCCCCCCCCC(=O)O)C(=O)O)C(=O)N[C@@H](CCC(N)=O)C(=O)N[C@H](C(=O)N[C@@H](CC(C)C)C(=O)N[C@@H](CC(C)C)C(=O)N[C@@H](CCC(=O)O)C(=O)N[C@@H](CCC(N)=O)C(=O)N[C@@H](CCC(=O)O)C(=O)N[C@@H](CCCNC(=N)N)C(=O)N[C@@H](CCC(N)=O)C(=O)N[C@@H](CCCCN)C(=O)N[C@@H](CCCCN)C(=O)N[C@@H](CCC(N)=O)C(=O)N[C@@H](CCCNC(=N)N)C(=O)N[C@@H](CCC(=O)O)C(=O)N[C@@H](CCC(N)=O)C(=O)N[C@@H](C)C(=O)N[C@@H](CCC(=O)O)C(=O)N[C@H](C(=O)N[C@@H](CC(N)=O)C(=O)NC(C)(C)C(=O)N[C@@H](CCC(N)=O)C(=O)N[C@H](C(=O)N[C@@H](CC(C)C)C(=O)N[C@@H](C)C(=O)N[C@@H](CCC(N)=O)C(=O)N[C@H](C(N)=O)C(C)C)[C@@H](C)CC)[C@@H](C)O)[C@@H](C)CC)[C@@H](C)O)C(C)C)C(C)C

Target: human corticotropin-releasing factor 2α (CRF2 α receptor) (human), Q13324
Test: cell-based or functional assay

Sequence of human corticotropin-releasing factor 2α (CRF2 α receptor) (human), Q13324 (Q13324 20-411): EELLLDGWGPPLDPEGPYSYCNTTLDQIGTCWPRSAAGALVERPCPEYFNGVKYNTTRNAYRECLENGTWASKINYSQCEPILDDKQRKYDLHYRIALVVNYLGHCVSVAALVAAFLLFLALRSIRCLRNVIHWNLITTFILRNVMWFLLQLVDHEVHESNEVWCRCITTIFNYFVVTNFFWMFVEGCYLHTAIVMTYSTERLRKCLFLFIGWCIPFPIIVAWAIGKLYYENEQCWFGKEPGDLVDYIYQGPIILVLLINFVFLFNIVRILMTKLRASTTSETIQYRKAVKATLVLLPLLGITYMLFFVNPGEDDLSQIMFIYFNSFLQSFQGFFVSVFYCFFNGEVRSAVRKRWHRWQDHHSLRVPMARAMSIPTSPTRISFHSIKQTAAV

Row | EC50 [nM], 0% HSA [nM] | EC50 [nM], 0.1% HSA [nM] | Binder
1 | 0.14 | 18.5 | B1
2 | 0.46 | – | B2
3 | 0.33 | – | B3
4 | 0.04 | – | B4
5 | 0.9 | 92.5 | B5
6 | 10.6 | – | B6
